Patent US20110052551A1, “CARDIAC MYOCYTE MORPHOGENIC COMPOSITIONS AND METHODS OF USE THEREFOR” (priority 2008, published 2011)

Experiments:
unfractionated BMMNCs [1] = assay: Assessment of cardiac differentiation by immunocytochemistry (cMyHC, cTnT); assay type: cell-based, mice; details: 21 days of culture
From the text: (§1) Induction of differentiation. To assess the influence of ectopic expression of Wnt11 on BMMNC differentiation, Wnt11 conditioned medium (Wnt11-CM) was generated. Specifically, unfractionated BMMNCs were co-cultured with Wnt11-expressing HEK-293 cells (Wnt11/293-2; designated as Wnt11-CM), under the same conditions used to culture BMMNCs. In order to achieve strict separation of cell types during co-culture experiments, BMMNC and Wnt11/293 cells were separated into upper and lower chambers of a TRANSWELL® co-culture system. Wnt11/293-2 or pcDNA3/293 (empty vector) cells (the controls in this experiment) were cultured in the upper chamber on the polyester (PET) membrane of a 24 mm TRANSWELL® insert, and unfractionated BMMNCs were cultured in the lower chamber as described above.
Moreover, to eliminate the possibility of cell fusion or cell-cell contact as a requirement for Wnt11-mediated effects, a membrane pore size of 0.4 μm was chosen, thus preventing egression of Wnt11/293-2 cells to the lower compartment that contained BMMNCs. Of note, TRANSWELL® inserts were maintained separately without cells until day 10 of BMMNC attachment. […]
Assessment of cardiac differentiation. For quantitative assessment of cardiomyocytic differentiation, an average of 2400 cells/plate were counted. Multiple fields from all 4 quarters of the plate were systematically evaluated. […]

unfractionated BMMNCs [2] = assay: qRT-PCR of cardiac-specific mRNA levels in cultured BMMNCs; assay type: cell-based, mice; details: 21 days of culture
From the text: as §1, with “Wnt11/293-2 or pcDNA3/293 (empty vector) cells (the controls in this experiment) were cultured in the upper chamber on the polyester (PET) membrane of a 24 mm TRANSWELL® insert, and unfractionated BMMNCs were cultured in the lower chamber as described above.” left out
Assessment of mRNA expression by quantitative real-time RT-PCR (qRT-PCR). […] Prior to mRNA extraction, cell number was determined and calculated by Trypan blue exclusion. cDNA was generated from freshly isolated (designated as baseline) and cultured unfractionated BMMNCs at days 0, 3, 7, and 21 (see FIG. 9A) using QUANTISCRIPT REVERSE TRANSCRIPTASE™ (Qiagen Inc., Valencia, Calif., United States of America) contained in RT master mix of Cell to cDNA kits according to manufacturer's protocol. […]
To avoid amplification of contaminating DNA, all validated qRT-PCR primers were designed to cross […] sequences within the cDNA to be amplified. Quantitative qRT-PCR analysis was performed in an ABI Prism 7900H sequence detection system (Applied Biosystems, Foster City, Calif.) using QUANTITECT™ SYBR® Green Real Time PCR kits. […]

B1: Wnt3a: recombinant Wnt3a protein, canonical Wnt, used at 150 ng/ml (protein, UniProt P56704 19-352, looked up)
Protein Wnt-3a: SYPIWWSLAVGPQYSSLGSQPILCASIPGLVPKQLRFCRNYVEIMPSVAEGIKIGIQECQHQFRGRRWNCTTVHDSLAIFGPVLDKATRESAFVHAIASAGVAFAVTRSCAEGTAAICGCSSRHQGSPGKGWKWGGCSEDIEFGGMVSREFADARENRPDARSAMNRHNNEAGRQAIASHMHLKCKCHGLSGSCEVKTCWWSQPDFRAIGDFLKDKYDSASEMVVEKHRESRGWVETLRPRYTYFKVPTERDLVYYEASPNFCEPNPETGSFGTRDRTCNVSSHGIDGCDLLCCGRGHNARAERRREKCRCVFHWCCYVSCQECTRVYDVHTCK
**Q.** What does the source list for B1?
**A.** expression of cardiac-specific contractile proteins (cTnT, cMyHC) (unfractionated BMMNCs [1]): not observed; cardiac-specific transcripts (unfractionated BMMNCs [2]): no cardiac-specific transcripts were detected
